Laboratory results from patent US20240059799A1 (Pfizer, published 2024).

T1: recombinant human TL1A (human, UniProt O95150 71-251)
T1 construct: The ELISA method says only 'recombinant TL1A' coated on plates; homotrimeric cytokine; also called TNFSF15; recombinant TL1A
T1 chain: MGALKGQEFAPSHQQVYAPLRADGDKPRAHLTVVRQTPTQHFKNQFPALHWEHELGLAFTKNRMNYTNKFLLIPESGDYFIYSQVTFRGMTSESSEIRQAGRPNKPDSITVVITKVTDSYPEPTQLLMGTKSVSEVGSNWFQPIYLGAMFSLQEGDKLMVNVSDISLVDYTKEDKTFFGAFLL


Molecular target: T1, recombinant human TL1A
Assay: competition ELISA on coated recombinant TL1A; competitor biotinylated TL1A-0002
Protocol: For this competition ELISA assay procedure, 96-well high binding plates (Corning, product number 3590) were coated with 1 μg/mL recombinant TL1A in 100 μL/well in Phospate Buffered Saline (PBS) overnight at 4° C. Plates were then blocked in PBS+0.02% casein solution and washed with PBS+0.05% Tween-20 following standard ELISA protocol. […] Plates were washed with PBS+0.05% Tween-20 following standard ELISA protocol, and Streptavidin-HRP (Southern Biotech, product number 7100-05) diluted to 1:10,000 in assay buffer was added to plates and incubated for 25-30 minutes at room temperature. Next, the plates were washed with PBS+0.05% Tween-20 following standard ELISA protocol, and then TMB substrate (BioFX Laboratories, catalog number TMBW-0100-01) was added to plates. Reactions were stopped after approximately 5 minutes by adding 0.18 M ortho-phosphoric acid to each well and absorbance was read at 450 nm.

Row | Binder | Bioactivity relative to TL1A-0002 | IC50
1 | TL1A-0002 (antibody, human IgG1, kappa, V domains shown, human IgG1 effector-function-minimized / human kappa; also called parental TL1A-0002 antibody) VH: QVQLVQSGAEVKKPGASVKVSCKASGYDFTYYGISWVRQAPGQGLEWMGWISTYNGNTHYARMLQGRVTMTTDTSTRTAYMELRSLRSDDTAVYYCARENYYGSGAYRGGMDVWGQGTTVTVSS VL: EIVLTQSPATLSLSPGERATLSCRASQSVSSYLAWYQQKPGQAPRLLIYDASNRATGIPARFSGSGSGTDFTLTISSLEPEDFAVYYCQQRSNWPWTFGQGTKVEIKR | 1 fold | 5 nM
2 | TL1A-0252 (antibody, V domains shown, IgG1 effector-minimized/kappa) VH: QVQLVQSGAEVKKPGASVKVSCKASGYDFTYYGISWVRQAPGQGLEWMGWISTYNTNTHYAPSLQGRVTMTTDTSTSTAYMELRSLRSDDTAVYYCARESYYGSGAFRGGMDVWGQGTTVTVSS VL: DIQMTQSPSSLSASVGDRVTITCRASQSVSSYLAWYQQKPGKAPKLLIYDASNRATGVPSRFSGSGSGTDFTLTISSLQPEDFATYYCQQRSNWPWTFGQGTKVEIKR | 2.7 fold | 13.5 nM
3 | TL1A-0042 (antibody, human IgG1, kappa, V domains shown, TL1A-0002 heavy chain with light chain CDRs grafted onto IGKV1-39*01; human IgG1 effector-function-minimized / human kappa) VH: QVQLVQSGAEVKKPGASVKVSCKASGYDFTYYGISWVRQAPGQGLEWMGWISTYNGNTHYARMLQGRVTMTTDTSTRTAYMELRSLRSDDTAVYYCARENYYGSGAYRGGMDVWGQGTTVTVSS VL: DIQMTQSPSSLSASVGDRVTITCRASQSVSSYLAWYQQKPGKAPKLLIYDASNRATGVPSRFSGSGSGTDFTLTISSLQPEDFATYYCQQRSNWPWTFGQGTKVEIKR | 0.8 fold | 4.2 nM
4 | TL1A-0189 (antibody, human IgG1, kappa, V domains shown, IgG1 effector-minimized/kappa) VH: QVQLVQSGAEVKKPGASVKVSCKASGYDFTYYGISWVRQAPGQGLEWMGWISTYNGNTHYARMLQGRVTMTTDTSTSTAYMELRSLRSDDTAVYYCARENYYGSGAYRGGMDVWGQGTTVTVSS VL: DIQMTQSPSSLSASVGDRVTITCRASQSVSSYLAWYQQKPGKAPKLLIYDASNRATGVPSRFSGSGSGTDFTLTISSLQPEDFATYYCQQRSNWPWTFGQGTKVEIKR | 0.8 fold | 3.8 nM
5 | TL1A-0242 (antibody, V domains shown, IgG1 effector-minimized/kappa) VH: QVQLVQSGAEVKKPGASVKVSCKASGYDFTYYGISWVRQAPGQGLEWMGWISTYNDNTHYAPSLQGRVTMTTDTSTSTAYMELRSLRSDDTAVYYCARESYYGSGAFRGGMDVWGQGTTVTVSS VL: DIQMTQSPSSLSASVGDRVTITCRASQSVSSYLAWYQQKPGKAPKLLIYDASNRATGVPSRFSGSGSGTDFTLTISSLQPEDFATYYCQQRSNWPWTFGQGTKVEIKR | 3.2 fold | 16.2 nM
6 | TL1A-0243 (antibody, V domains shown, IgG1 effector-minimized/kappa) VH: QVQLVQSGAEVKKPGASVKVSCKASGYDFTYYGISWVRQAPGQGLEWMGWISTYNDNTHYAPSLQGRVTMTTDTSTSTAYMELRSLRSDDTAVYYCARESYYGSGAHRGGMDVWGQGTTVTVSS VL: DIQMTQSPSSLSASVGDRVTITCRASQSVSSYLAWYQQKPGKAPKLLIYDASNRATGVPSRFSGSGSGTDFTLTISSLQPEDFATYYCQQRSNWPWTFGQGTKVEIKR | 2.9 fold | 14.5 nM
7 | TL1A-0244 (antibody, V domains shown, IgG1 effector-minimized/kappa) VH: QVQLVQSGAEVKKPGASVKVSCKASGYDFTYYGISWVRQAPGQGLEWMGWISTYNDNTHYAQKLQGRVTMTTDTSTSTAYMELRSLRSDDTAVYYCARESYYGSGAFRGGMDVWGQGTTVTVSS VL: DIQMTQSPSSLSASVGDRVTITCRASQSVSSYLAWYQQKPGKAPKLLIYDASNRATGVPSRFSGSGSGTDFTLTISSLQPEDFATYYCQQRSNWPWTFGQGTKVEIKR | 3.5 fold | 17.6 nM
8 | TL1A-0245 (antibody, V domains shown, IgG1 effector-minimized/kappa) VH: QVQLVQSGAEVKKPGASVKVSCKASGYDFTYYGISWVRQAPGQGLEWMGWISTYNDNTHYAQKLQGRVTMTTDTSTSTAYMELRSLRSDDTAVYYCARESYYGSGAHRGGMDVWGQGTTVTVSS VL: DIQMTQSPSSLSASVGDRVTITCRASQSVSSYLAWYQQKPGKAPKLLIYDASNRATGVPSRFSGSGSGTDFTLTISSLQPEDFATYYCQQRSNWPWTFGQGTKVEIKR | 3.2 fold | 16.2 nM
9 | TL1A-0246 (antibody, V domains shown, IgG1 effector-minimized/kappa) VH: QVQLVQSGAEVKKPGASVKVSCKASGYDFTYYGISWVRQAPGQGLEWMGWISTYNTGTHYAPSLQGRVTMTTDTSTSTAYMELRSLRSDDTAVYYCARESYYGSGAFRGGMDVWGQGTTVTVSS VL: DIQMTQSPSSLSASVGDRVTITCRASQSVSSYLAWYQQKPGKAPKLLIYDASNRATGVPSRFSGSGSGTDFTLTISSLQPEDFATYYCQQRSNWPWTFGQGTKVEIKR | 2.6 fold | 13.3 nM
10 | TL1A-0247 (antibody, V domains shown, IgG1 effector-minimized/kappa) VH: QVQLVQSGAEVKKPGASVKVSCKASGYDFTYYGISWVRQAPGQGLEWMGWISTYNTGTHYAPSLQGRVTMTTDTSTSTAYMELRSLRSDDTAVYYCARESYYGSGAHRGGMDVWGQGTTVTVSS VL: DIQMTQSPSSLSASVGDRVTITCRASQSVSSYLAWYQQKPGKAPKLLIYDASNRATGVPSRFSGSGSGTDFTLTISSLQPEDFATYYCQQRSNWPWTFGQGTKVEIKR | 2.4 fold | 12.2 nM
11 | TL1A-0248 (antibody, V domains shown, IgG1 effector-minimized/kappa) VH: QVQLVQSGAEVKKPGASVKVSCKASGYDFTYYGISWVRQAPGQGLEWMGWISTYNTGTHYAQKLQGRVTMTTDTSTSTAYMELRSLRSDDTAVYYCARESYYGSGAFRGGMDVWGQGTTVTVSS VL: DIQMTQSPSSLSASVGDRVTITCRASQSVSSYLAWYQQKPGKAPKLLIYDASNRATGVPSRFSGSGSGTDFTLTISSLQPEDFATYYCQQRSNWPWTFGQGTKVEIKR | 3.2 fold | 16 nM
12 | TL1A-0249 (antibody, V domains shown, IgG1 effector-minimized/kappa) VH: QVQLVQSGAEVKKPGASVKVSCKASGYDFTYYGISWVRQAPGQGLEWMGWISTYNTGTHYAQKLQGRVTMTTDTSTSTAYMELRSLRSDDTAVYYCARESYYGSGAHRGGMDVWGQGTTVTVSS VL: DIQMTQSPSSLSASVGDRVTITCRASQSVSSYLAWYQQKPGKAPKLLIYDASNRATGVPSRFSGSGSGTDFTLTISSLQPEDFATYYCQQRSNWPWTFGQGTKVEIKR | 3.1 fold | 15.7 nM
13 | TL1A-0251 (antibody, V domains shown, IgG1 effector-minimized/kappa) VH: QVQLVQSGAEVKKPGASVKVSCKASGYDFTYYGISWVRQAPGQGLEWMGWISTYNTVTHYAPSLQGRVTMTTDTSTSTAYMELRSLRSDDTAVYYCARESYYGSGAHRGGMDVWGQGTTVTVSS VL: DIQMTQSPSSLSASVGDRVTITCRASQSVSSYLAWYQQKPGKAPKLLIYDASNRATGVPSRFSGSGSGTDFTLTISSLQPEDFATYYCQQRSNWPWTFGQGTKVEIKR | 3.2 fold | 16.2 nM
14 | TL1A-0253 (antibody, V domains shown, IgG1 effector-minimized/kappa) VH: QVQLVQSGAEVKKPGASVKVSCKASGYDFTYYGISWVRQAPGQGLEWMGWISTYNTNTHYAPSLQGRVTMTTDTSTSTAYMELRSLRSDDTAVYYCARESYYGSGAHRGGMDVWGQGTTVTVSS VL: DIQMTQSPSSLSASVGDRVTITCRASQSVSSYLAWYQQKPGKAPKLLIYDASNRATGVPSRFSGSGSGTDFTLTISSLQPEDFATYYCQQRSNWPWTFGQGTKVEIKR | 2.7 fold | 13.4 nM
15 | TL1A-0254 (antibody, V domains shown, IgG1 effector-minimized/kappa) VH: QVQLVQSGAEVKKPGASVKVSCKASGYDFTYYGISWVRQAPGQGLEWMGWISTYGGNTHYAPSLQGRVTMTTDTSTSTAYMELRSLRSDDTAVYYCARESYYGSGAFRGGMDVWGQGTTVTVSS VL: DIQMTQSPSSLSASVGDRVTITCRASQSVSSYLAWYQQKPGKAPKLLIYDASNRATGVPSRFSGSGSGTDFTLTISSLQPEDFATYYCQQRSNWPWTFGQGTKVEIKR | 9.2 fold | 46.3 nM
16 | TL1A-0255 (antibody, V domains shown, IgG1 effector-minimized/kappa) VH: QVQLVQSGAEVKKPGASVKVSCKASGYDFTYYGISWVRQAPGQGLEWMGWISTYGGNTHYAPSLQGRVTMTTDTSTSTAYMELRSLRSDDTAVYYCARESYYGSGAHRGGMDVWGQGTTVTVSS VL: DIQMTQSPSSLSASVGDRVTITCRASQSVSSYLAWYQQKPGKAPKLLIYDASNRATGVPSRFSGSGSGTDFTLTISSLQPEDFATYYCQQRSNWPWTFGQGTKVEIKR | 7.6 fold | 38.4 nM
17 | TL1A-0256 (antibody, human IgG1, kappa, V domains shown, human IgG1 effector-function-minimized / human kappa) VH: QVQLVQSGAEVKKPGASVKVSCKASGYDYTYYGISWVRQAPGQGLEWMGWISTYNDNTHYAPSLQGRVTMTTDTSTSTAYMELRSLRSDDTAVYYCARESYYGSGAFRGGMDVWGQGTTVTVSS VL: DIQMTQSPSSLSASVGDRVTITCRASQSVSSYLAWYQQKPGKAPKLLIYDASNRATGVPSRFSGSGSGTDFTLTISSLQPEDFATYYCQQRSNWPWTFGQGTKVEIKR | 2.3 fold | 11.6 nM
18 | TL1A-0257 (antibody, human IgG1, kappa, V domains shown, human IgG1 effector-function-minimized / human kappa) VH: QVQLVQSGAEVKKPGASVKVSCKASGYDYTYYGISWVRQAPGQGLEWMGWISTYNDNTHYAPSLQGRVTMTTDTSTSTAYMELRSLRSDDTAVYYCARESYYGSGAHRGGMDVWGQGTTVTVSS VL: DIQMTQSPSSLSASVGDRVTITCRASQSVSSYLAWYQQKPGKAPKLLIYDASNRATGVPSRFSGSGSGTDFTLTISSLQPEDFATYYCQQRSNWPWTFGQGTKVEIKR | 1.9 fold | 9.5 nM
